Target: Microtubules polymerized from purified porcine brain tubulin (porcine) (UniProt P02550)
Assay: co-sedimentation

Kd: 670 nM
Substance: GST-TAOK2-C (1,187–1,235) (from UniProt Q9UL54 1187-1235) (domain or fragment)

Reference: PMC8699727
